# B1: TPR t1 (parent)
# chain: GACCAAUCUGCCCUCAGAGCUCGAGAACAUCUUCGGAUGCAGAGGAGGCAGGCUUCGGUGGCGCGAUAGCGCCAACGUCCUCAACCUCCAAUGCAUCCCACCACAUGAUGAUGCCUGAAGAGCCUUGGUUUUUUG
# Variants of: B1
# Experiment: polymerase ribozyme fitness, log enrichment relative to wild type (log ratio); higher = more active; in vitro selection for triplet polymerase activity
# Method in brief: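 A heterodimeric triplet polymerase ribozyme had each of its subunits mutagenized by PCR into a library, which was transcribed. One round of in vitro selection, done in triplicate, annealed each library with a biotinylated primer, its partner subunit and triplets, then incubated it frozen at −7 °C before gel excision of extended constructs, streptavidin-bead capture and RT-PCR. Fitness is the logarithm of genotype enrichment relative to wild-type enrichment, based on Illumina sequencing of inputs and outputs and inverse-variance-weighted replicate averages. A base-2 logarithm is used, and genotypes were kept only with ≥10 input reads and ≥1 read per output.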
row,Variant,polymerase ribozyme fitness (log ratio)
1,A2C U109G C114U U129G,-5.24
2,A26G U33G G61A A84C C98U,-5.59
3,G42A G48U C56U C114U U131C,-3.37
4,G61A G117C,-2.99
5,C11A C13U G63U,-2.94
6,C70A C114U U125A,-5.48
7,G48C A111C,-0.761
8,G63A G71C,-3.85
9,C20A C124G,-0.976
10,U7C G48C C70U,-0.869
11,C8A A24G C28A A84C A121U,-3.25
12,U21C G42A G52U C124A U125A,-1.88
13,G47A C76G C114G,-3.13
14,C4U U9G A103U C124G,-3.47
15,C12G G135U,-0.927
16,C53U G93C,-1.07
17,G63U A91C,-3.19
18,C13A C49U C53G G61U,-3.09
19,U33G C49G G58C A121C,-6.04
20,G10A C11G C12U U96C C104U C123G U131G,2.08
21,C76U C80G U96C G120C,-4.89

row,Variant,polymerase ribozyme fitness (log ratio)
1,C12U A26U,-2.07
2,C56G G65A,-4.66
3,C11U A41U G63A U78C C88U C114U U131G,-6.29
4,G47U U92A,-5.48
5,C3A C12U C102A,-1.7
6,G45U A111U C124U,-3.45
7,G17A C72G U96A,-4.81
8,A43C C56G C62G A68G G120A,-7.42
9,A2U C53G C76U U125G,-4.01
10,C28G G39U C53U G63C U78C C124A,-3.85
11,C11A A29U U59A C70A G120A,-1.52
12,U7A C8G G45A U112A,1.66
13,C4G C8U A18U A43U U81A,-2.85
14,C40U A83C,-0.818
15,C49A C56A,-0.845
16,G48U U54C C82G C115G,-3.12
17,C28G U59A,-3.18
18,A2C G120U,-0.948
19,G63U G107A,-4.13
20,C79A G107U A119G G135C,-5.92
21,A50C A90U,-2

row,Variant,polymerase ribozyme fitness (log ratio)
1,C13A A18U G42U G61U C123G,-0.471
2,A37G C79G,-1.49
3,C22G G23A G52C,-3.57
4,U54A C62A A95C,-2.03
5,C72G U78C G113A,-1.93
6,C20G G120C,-2.75
7,G110C U112G,-4.99
8,A43C C56U C82A A91U G93U U96C C124G,-2.46
9,C11U U54G C73U C97U G120C,0.506
10,A37G G61A,-0.324
11,C62U C79U,-0.282
12,G10C A24U C53A G63C G117C G128A,-5.7
13,A41C U78C C86A U106A,-1.09
14,C12U A27C A95U U125A,-3.79
15,A37U G45U G61C,-2.86
16,A16C A50U U54A C86G,-5.88
17,G47A U131C,-1.16
18,C70U A121U,0.918
19,A6U C53U C88U,-0.366
20,G63C A91U,-2.7
21,U14A C49U G60C A103C U112A C123G,-6.39

row,Variant,polymerase ribozyme fitness (log ratio)
1,C85A C94U U112C,0.116
2,A26C G63A C82G A90G U112A,-5.15
3,G45A G51A C79G C82U C86U U112A C115A,-7.28
4,C3U A46U C73A U87A,-0.663
5,C70G G113A,-3.02
6,C12U U21A G35A A74G,-4.28
7,C13A A37C C73U A118U,-1.72
8,C28G U59A C89G A103G C104A U109G C123G U133A,-5.51
9,A18U C22G A66U U78C C82U,-6.51
10,A2U G51U U59G A84C,-4.9
11,G93U G110U,-2.46
12,C40U G93A U96G,-0.786
13,A16C G47U,-3.93
14,C8G C82A A90U U92G G117U G120C,-1.01
15,C3A C56U G61U G113U G120U U126C,-5.49
16,A50G U130G,-0.32
17,C56U C123G,1.1
18,G65A U112A,-2.74
19,A5U A27G G44U A118U,-4.64
20,C40U C97U C102A A111G,-2.88

# From the RNAGym collection of RNA variant scans (doi:10.1073/pnas.2313332121)
